# Test results: patent publication US20260070961A1 (Takeda / Millennium, published 2026)
# B1: DENV3-8D4 (antibody, V domains shown)
# VH: QEQLEESGGGLVKPGGTLTLTCTASGFSFSNVYYICWVRQAPGKGLEWIGCIGTGDGNTWYASWAKGRFTISKASSTTVILQVTSLTAADTATYFCARDIYSYDNTGVYTVPKLWGPGTLVTVSS
# VL: AAVLTQTPSPVSAAVGGTVSISCQSSESVYSNNRLAWYQQKPGQPPKLLIYRASTLESGVPSRFKGSGSGTEFTLTISDVRCDDAATYYCAGGYSGSSDKGFGGGTEVVVK
# B2: DENV3-12H6 (antibody, V domains shown)
# VH: QEQLEESGGDLVKPEGSLTLTCKASGIDFSSSYWICWVRQAPGKGLEWIGCIYTGSSTTWYAAWAKGRFTISKPSSTTVTLQMTSLTAADTATYFCARFYDVGVYFNLWGPGTLVTVSS
# VL: AIVMTQTPSSKSVPVGDTVTINCQASESISSWLAWYQQKPGQPPKLLIYLASTLASGVPSRFKGSGSGTQFTLTISDVVCDDAATYYCAGYKSSVTDGFAFGGGTEVVVK
# B3: DENV3-5D7 (antibody, V domains shown)
# VH: QSLEESGGDLVKPGASLTLTCTASGFSFSSGYDMCWVRQAPGKGLEWIACIYITDTGSSYYATWARGRFTISKTSSTSVTLQVTSLTAADTATYFCAKTNYGSGGFAFNLWGPGTLVTVSS
# VL: DVVMTQTPASVEARVGGTVTINCQASQSISNLLAWYQQKPGQPPKLLIYRASALESGVPSRFRGSGSGTEFTLTISDLECADAATYYCQCTYGGSSITNWAFGGGTEVVVK
# notes: also called clone 5D7
# Target: T1, DENV-3 VLP (Dengue virus serotype 3)
# T1 construct: also called dengue 3 VLP; DENV-VLP
# Experiment: BLI (Octet-HTX), IgG from supernatant captured on Protein A biosensor, 5 ug/mL DENV-VLP
row,Binder,response
1,B1,1.51
2,B2,1.39
3,B3,0.984

# Target: T1, DENV-3 VLP
# Experiment: Luminex assay, VLP-conjugated MagPlex beads
row,Binder,EC50
1,B1,0.115 mg/L
2,B2,0.11 mg/L
3,B3,0.025 mg/L

# Target: T2, DENV3 Domain III protein (Dengue virus serotype 3)
# T2 construct: domain: Domain III; also called TDV3 Domain III
# Experiment: BLI (Octet HTX), mAb coupled to AR2G biosensor, 20 ug/mL Domain III protein, response at 1200 sec
row,Binder,Response (nm)
1,B1,0.248 nm
2,B2,0.0148 nm
3,B3,0.0178 nm

# Target: T1, DENV-3 VLP
# Experiment: BLI (Octet-HTX), IgG from supernatant captured on Protein A biosensor, 5 ug/mL DENV-VLP, 1:1 model
row,Binder,koff
1,B1,< 2e-05 s⁻¹
2,B2,< 2e-05 s⁻¹
3,B3,< 2e-05 s⁻¹
